These are literature values, as cited in publication PMC5403572.

As usually defined, the pKa is the pH at which an ionisable group is half protonated.

In one data set the target is Asp32 (UniProt position 93, LNILVDTGSSN). The experiment in a line: kinetics. Conditions: apo (free) enzyme.
The target in another data set is Asp228 (UniProt position 289, DKSIVDSGTTN). The experiment in a line: kinetics. Conditions: apo (free) enzyme.

With “Beta-secretase 1 (BACE1, memapsin 2) (Homo sapiens)”, the pKa with Asp32 was 5.2; with Asp228, 3.5.
